One assay has as its target T1, Core_NNNN-es_KKKK.
T1 chain: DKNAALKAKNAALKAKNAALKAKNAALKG
As to the kind of experiment: two-hybrid library CCmax.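 Note: natural log of median RNA to DNA barcode read ratio; higher means stronger binding.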 To be noted: mean of both orientations.

A further assay deals with T2, 4H1068-AA.
T2 chain: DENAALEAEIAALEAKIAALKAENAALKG
As to the kind of experiment: two-hybrid library CCmax.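 Note: natural log of median RNA to DNA barcode read ratio; higher means stronger binding.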

For another assay, the target named is T3, 4H121-AA.
T3 chain: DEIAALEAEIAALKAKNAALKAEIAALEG
Description: two-hybrid library CCmax.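 Note: natural log of median RNA to DNA barcode read ratio; higher means stronger binding.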 As to conditions: mean of both orientations.

A further assay addresses T4, 4H1350-AA.
T4 chain: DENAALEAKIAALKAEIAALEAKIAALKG
As to the kind of experiment: two-hybrid library CCmax.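 Note: natural log of median RNA to DNA barcode read ratio; higher means stronger binding.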 To be noted: mean of both orientations.

For a further assay, the target named is T5, 4H1710-AA.
T5 chain: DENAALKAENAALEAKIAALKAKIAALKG
As to the kind of experiment: two-hybrid library CCmax.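 Note: natural log of median RNA to DNA barcode read ratio; higher means stronger binding.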 As to conditions: mean of both orientations.

The target of another assay is T6, 4H1985-AA.
T6 chain: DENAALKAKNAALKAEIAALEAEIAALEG
As to the kind of experiment: two-hybrid library CCmax.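 Note: natural log of median RNA to DNA barcode read ratio; higher means stronger binding.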 To be noted: mean of both orientations.

A further assay concerns the target T7, 4H2187-AA.
T7 chain: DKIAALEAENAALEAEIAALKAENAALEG
As to the kind of experiment: two-hybrid library CCmax. As to conditions: mean of both orientations.

The target of a further assay is T8, 4H233-AA.
T8 chain: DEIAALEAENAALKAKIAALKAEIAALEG
As to the kind of experiment: two-hybrid library CCmax. As to conditions: mean of both orientations.

Another assay concerns the target T9, 4H2512-AA.
T9 chain: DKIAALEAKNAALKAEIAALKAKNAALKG
Description: two-hybrid library CCmax. As to conditions: mean of both orientations.

Another assay addresses T10, 4H2646-AA.
T10 chain: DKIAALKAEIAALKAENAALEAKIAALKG
As to the kind of experiment: two-hybrid library CCmax. To be noted: mean of both orientations.

The target of a further assay is T11, 4H2687-AA.
T11 chain: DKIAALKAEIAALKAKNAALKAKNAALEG
As to the kind of experiment: two-hybrid library CCmax. To be noted: mean of both orientations.

The next assay deals with T12, 4H2705-AA.
T12 chain: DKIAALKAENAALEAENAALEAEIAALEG
As to the kind of experiment: two-hybrid library CCmax. To be noted: mean of both orientations.

The target of another assay is T13, 4H2758-AA.
T13 chain: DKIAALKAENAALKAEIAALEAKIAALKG
Description: two-hybrid library CCmax. To be noted: mean of both orientations.

A further assay addresses T14, 4H278-AA.
T14 chain: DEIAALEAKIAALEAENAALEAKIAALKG
As to the kind of experiment: two-hybrid library CCmax. As to conditions: mean of both orientations.

For a further assay, the target named is T15, 4H2873-AA.
T15 chain: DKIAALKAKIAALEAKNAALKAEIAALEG
Description: two-hybrid library CCmax. To be noted: mean of both orientations.

The target of another assay is T16, 4H2985-AA.
T16 chain: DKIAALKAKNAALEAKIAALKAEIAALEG
As to the kind of experiment: two-hybrid library CCmax. As to conditions: mean of both orientations.

Another assay deals with T17, 4H3134-AA.
T17 chain: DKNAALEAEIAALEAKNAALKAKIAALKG
As to the kind of experiment: two-hybrid library CCmax. As to conditions: mean of both orientations.

Another assay deals with T18, 4H3409-AA.
T18 chain: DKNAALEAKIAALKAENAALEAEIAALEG
As to the kind of experiment: two-hybrid library CCmax. To be noted: mean of both orientations.

In another assay the target is T19, 4H3625-AA.
T19 chain: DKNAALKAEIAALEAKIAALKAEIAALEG
As to the kind of experiment: two-hybrid library CCmax. As to conditions: mean of both orientations.

Another assay deals with T20, 4H390-AA.
T20 chain: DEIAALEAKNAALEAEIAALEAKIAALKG
Description: two-hybrid library CCmax. As to conditions: mean of both orientations.

A further assay has as its target T21, 4H3940-AA.
T21 chain: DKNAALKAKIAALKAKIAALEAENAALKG
As to the kind of experiment: two-hybrid library CCmax. To be noted: mean of both orientations.

A further assay deals with T22, 4H510-AA.
T22 chain: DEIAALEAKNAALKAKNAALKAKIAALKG
As to the kind of experiment: two-hybrid library CCmax. As to conditions: mean of both orientations.

The next assay deals with T23, 4H775-AA.
T23 chain: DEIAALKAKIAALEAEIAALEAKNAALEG
Description: two-hybrid library CCmax. To be noted: mean of both orientations.

The next assay has as its target T24, 4H816-AA.
T24 chain: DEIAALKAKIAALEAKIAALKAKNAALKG
As to the kind of experiment: two-hybrid library CCmax. To be noted: mean of both orientations.

A further assay deals with T25, 4H87-AA.
T25 chain: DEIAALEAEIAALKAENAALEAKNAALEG
Description: two-hybrid library CCmax. To be noted: mean of both orientations.

The target in the next assay is T26, P5SH.
T26 chain: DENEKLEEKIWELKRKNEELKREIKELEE
As to the kind of experiment: two-hybrid library CCNG1.

Assay [1] has as its target T27, P6SH.
T27 chain: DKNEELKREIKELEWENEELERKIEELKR
Description: two-hybrid library CCNG1.

The target in a further assay is T28, P7SH.
T28 chain: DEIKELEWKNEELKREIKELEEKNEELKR
As to the kind of experiment: two-hybrid library CCNG1.

Another assay has as its target T29, P8SH.
T29 chain: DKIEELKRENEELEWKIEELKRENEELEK
Description: two-hybrid library CCNG1.

Assay [2] concerns the target T27, P6SH. As to the kind of experiment: two-hybrid library CCmax. As to conditions: mean of both orientations.

As to DENAALEAENAALEAENAALEAENAALEG [Core_NNNN-es_EEEE], the interaction score with Core_NNNN-es_KKKK stood at 1.53.

For DENAALEAEIAALEAKIAALKAENAALKG [4H1068-AA], the interaction score with 4H1068-AA is 0.409; with 4H121-AA, -0.866; in the assay with 4H1350-AA it was 0.695; in the assay with 4H1710-AA, -1.11; in the assay with 4H1985-AA it was 0.534; in the assay with 4H2187-AA, -1.71. Further, the interaction score was 0.754 in the assay with 4H233-AA; -1.06 with 4H2512-AA; -0.0619 in the assay with 4H2646-AA; 0.562 with 4H2687-AA; -1.15 with 4H2705-AA; -1.99 with 4H2758-AA. In addition, the interaction score in the assay with 4H278-AA was -0.737; with 4H2873-AA, -0.197; with 4H2985-AA it was -0.0876; in the assay with 4H3134-AA, -0.167; in the assay with 4H3409-AA, -1.36; with 4H3625-AA, -0.226. The interaction score with 4H390-AA is -0.217; with 4H3940-AA it was 2.05; with 4H510-AA, -1.05; with 4H775-AA, -0.238; with 4H816-AA, 0.372; with 4H87-AA it was -0.863.

For DENEKLEEKIWELKRKNEELKREIKELEE [P5SH], the interaction score in the assay with P5SH was -0.706; with P6SH [1] it was 1.84; with P7SH, -0.619; with P8SH it was 0.809; with P6SH [2], 0.801.

For the origin of these results see publication PMC10397247.
